According to ChEMBL document CHEMBL3596158, “Exploring the substrate promiscuity of an antibiotic inactivating enzyme” (Medchemcomm, 2014):
Values belong to the molecule of their own block, whether it stands above or below them.

Experiments:
[1] = target: T1, Microcin C7 self-immunity protein MccF (Escherichia coli) (UniProt Q47511); test: Ratio of compound Kcat/Km to ESA Kcat/Km for wild type Escherichia coli MccF expressed in Escherichia coli Rosetta2 (DE3)
T1 sequence (whole entry): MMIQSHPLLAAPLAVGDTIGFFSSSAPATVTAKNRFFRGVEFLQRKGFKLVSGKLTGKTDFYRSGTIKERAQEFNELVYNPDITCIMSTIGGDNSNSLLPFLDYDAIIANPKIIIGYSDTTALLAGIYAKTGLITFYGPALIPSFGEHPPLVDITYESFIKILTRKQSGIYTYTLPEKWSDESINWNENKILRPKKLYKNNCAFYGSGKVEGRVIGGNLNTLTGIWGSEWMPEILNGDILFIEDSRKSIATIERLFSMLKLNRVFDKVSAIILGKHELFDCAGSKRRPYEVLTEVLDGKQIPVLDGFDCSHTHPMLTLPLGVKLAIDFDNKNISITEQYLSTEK

[2] = substrate: N[C@@H](CCC(=O)O)C(=O)NS(=O)(=O)OC[C@H]1O[C@@H](n2cnc3c(=O)[nH]cnc32)[C@H](O)[C@@H]1O; test: (§1) Substrate activity at wild type Escherichia coli MccF expressed in Escherichia coli Rosetta2 (DE3) by bovine glutamate dehydrogenase-coupled continuous assay
[3] = substrate: Nc1nc2c(ncn2[C@@H]2O[C@H](COS(=O)(=O)NC(=O)[C@@H](N)CCC(=O)O)[C@@H](O)[C@H]2O)c(=O)[nH]1; test: as §1
[4] = substrate: Nc1ncnc2c1ncn2[C@@H]1O[C@H](COS(=O)(=O)NC(=O)[C@@H](N)CCC(=O)O)[C@@H](O)[C@H]1O; test: as §1

Ratio [1]: 1.5
Molecule: Nc1nc2c(ncn2[C@@H]2O[C@H](COS(=O)(=O)NC(=O)[C@@H](N)CCC(=O)O)[C@@H](O)[C@H]2O)c(=O)[nH]1

Ratio [1]: 0.6
Molecule: N[C@@H](CCC(=O)O)C(=O)NS(=O)(=O)OC[C@H]1O[C@@H](n2cnc3c(=O)[nH]cnc32)[C@H](O)[C@@H]1O

B1: Microcin C7 self-immunity protein MccF (Escherichia coli), Q47511 (protein)
chain: T1 sequence (whole entry)
Km [2]: 90.9 µM
kcat [2]: 0.635 s⁻¹
Km [3]: 33.4 µM
kcat [3]: 0.582 s⁻¹
Km [4]: 51.6 µM
kcat [4]: 0.583 s⁻¹
